Common to all, as to assay: co-IP with anti-FLAG, N-FLAG B3GNT2, mass spectrometry
Assay [1] has as its target T1, IMMT (human, UniProt Q16891-4 34-757, limits assumed).
T1 construct: also called NP_001093639.1 (+3)
T1 sequence (looked up): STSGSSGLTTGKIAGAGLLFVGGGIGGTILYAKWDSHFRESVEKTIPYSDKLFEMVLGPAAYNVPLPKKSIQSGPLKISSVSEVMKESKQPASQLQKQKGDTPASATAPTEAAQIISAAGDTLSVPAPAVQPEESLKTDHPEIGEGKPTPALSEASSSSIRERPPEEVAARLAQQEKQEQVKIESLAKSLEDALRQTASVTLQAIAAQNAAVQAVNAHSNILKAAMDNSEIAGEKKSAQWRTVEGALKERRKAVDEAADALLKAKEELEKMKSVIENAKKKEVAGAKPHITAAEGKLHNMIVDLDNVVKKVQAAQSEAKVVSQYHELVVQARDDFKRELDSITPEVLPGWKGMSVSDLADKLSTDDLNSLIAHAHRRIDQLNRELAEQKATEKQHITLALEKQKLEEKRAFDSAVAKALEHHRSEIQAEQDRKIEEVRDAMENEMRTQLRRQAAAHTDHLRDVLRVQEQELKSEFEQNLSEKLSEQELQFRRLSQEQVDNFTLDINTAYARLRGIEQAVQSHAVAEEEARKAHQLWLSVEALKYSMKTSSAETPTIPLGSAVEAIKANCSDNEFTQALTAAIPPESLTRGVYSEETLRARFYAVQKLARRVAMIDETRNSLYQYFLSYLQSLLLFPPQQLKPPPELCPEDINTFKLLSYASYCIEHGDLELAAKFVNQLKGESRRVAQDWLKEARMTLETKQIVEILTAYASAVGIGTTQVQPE
As for the experimental part: (§1) Cells were plated in 10-cm cell culture dishes and grown to 60-80% confluency. For each condition, two biological replicates were harvested for co-IP. Cells were washed with PBS and 4 mL of lysis buffer (20 mM HEPES, 1% Triton X-100, 150 mM NaCl, 1 mM EDTA, and 10% glycerol) containing protease inhibitor cocktail was added. Cells were scraped and lysate was incubated at 4° C. under rotary agitation for 1 h. Lysate was centrifuged at 14,000×g for 10 min at 4° C. Supernatant was transferred to a new tube and an aliquot was taken as the input. […] For Western blots, 10 μg/mL Chicken Anti-FLAG (Aves labs ET-DY100) and IgY control (R&D Systems AB-101-C) antibodies were biotinylated (Thermo Fisher Scientific 90407) and added to the respective conditions. Lysates with antibodies were incubated at 4° C. under rotary agitation overnight. For each mL of lysate, 50 μL of Pierce Protein A/G Magnetic Beads (Mass spectrometry; Thermo Fisher Scientific 88803) or Pierce Streptavidin Magnetic Beads (Western blot; Thermo Fisher Scientific 88817) was washed twice with lysis buffer. Lysates with antibodies were added to the beads and incubated at 4° C. under rotary agitation for 4 h. Beads were washed with lysis buffer 3 times and resuspended in lysis buffer for storage.
(§2) Magnetic beads were resuspended in 100 mM Tris pH 7.8, reduced, alkylated and digested with trypsin at 37° ° C. overnight. This solution was subjected to solid phase extraction to concentrate the peptides and remove unwanted reagents followed by injection onto a Shimadzu HPLC with fraction collector. Eight fractions were collected and after concentration were injected on a Waters NanoAcquity HPLC equipped with a self-packed Aeris 3 μm C18 analytical column 0.075 mm by 20 cm, (Phenomenex). Peptides were eluted using standard reverse-phase gradients. The effluent from the column was analyzed using a Thermo Orbitrap Elite mass spectrometer (nanospray configuration) operated in a data dependent manner for 54 minutes. The resulting fragmentation spectra were correlated against the known database using Proteome Discover 1.4 (Thermo Fisher Scientific).

Assay [2] deals with T2, PKM (human, UniProt P14618 2-531, limits assumed).
T2 construct: also called NP_001193725.1 (+3)
T2 sequence (P14618 2-531 limits assumed): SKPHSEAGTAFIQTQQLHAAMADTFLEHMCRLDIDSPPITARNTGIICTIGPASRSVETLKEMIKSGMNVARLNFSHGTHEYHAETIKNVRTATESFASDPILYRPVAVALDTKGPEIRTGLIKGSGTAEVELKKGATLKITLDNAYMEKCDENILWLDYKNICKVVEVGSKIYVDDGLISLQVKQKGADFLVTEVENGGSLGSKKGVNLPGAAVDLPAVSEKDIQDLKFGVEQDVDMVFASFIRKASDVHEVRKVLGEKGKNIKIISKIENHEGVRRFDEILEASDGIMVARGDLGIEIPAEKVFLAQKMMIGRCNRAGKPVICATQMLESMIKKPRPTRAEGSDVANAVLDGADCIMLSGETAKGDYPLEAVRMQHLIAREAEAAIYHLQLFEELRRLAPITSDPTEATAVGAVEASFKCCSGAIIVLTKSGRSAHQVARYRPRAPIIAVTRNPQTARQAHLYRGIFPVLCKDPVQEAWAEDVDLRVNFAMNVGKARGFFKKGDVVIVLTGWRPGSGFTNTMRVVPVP
The protocol:
as §1, §2

Assay [3] addresses T3, JUP (human, UniProt P14923 1-745).
T3 construct: also called NP_001339702.1
T3 sequence (looked up): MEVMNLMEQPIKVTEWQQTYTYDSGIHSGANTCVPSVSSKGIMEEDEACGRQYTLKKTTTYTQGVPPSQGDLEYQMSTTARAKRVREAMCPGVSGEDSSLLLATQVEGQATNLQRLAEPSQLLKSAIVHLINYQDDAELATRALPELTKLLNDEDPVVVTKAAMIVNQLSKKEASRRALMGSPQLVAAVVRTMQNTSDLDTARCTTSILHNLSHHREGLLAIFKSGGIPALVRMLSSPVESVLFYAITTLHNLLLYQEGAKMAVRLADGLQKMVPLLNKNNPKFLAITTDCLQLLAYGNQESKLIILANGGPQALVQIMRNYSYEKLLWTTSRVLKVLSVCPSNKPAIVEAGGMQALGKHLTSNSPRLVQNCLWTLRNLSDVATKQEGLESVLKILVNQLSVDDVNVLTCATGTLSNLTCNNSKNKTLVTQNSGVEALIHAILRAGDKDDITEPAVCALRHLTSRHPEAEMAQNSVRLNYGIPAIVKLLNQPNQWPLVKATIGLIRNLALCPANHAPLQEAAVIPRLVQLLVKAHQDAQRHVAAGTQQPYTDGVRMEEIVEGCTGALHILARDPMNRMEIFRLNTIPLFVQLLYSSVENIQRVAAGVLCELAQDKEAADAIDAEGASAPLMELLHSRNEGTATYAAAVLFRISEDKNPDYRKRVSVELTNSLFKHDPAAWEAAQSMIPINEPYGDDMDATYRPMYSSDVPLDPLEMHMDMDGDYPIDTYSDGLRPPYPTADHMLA
The protocol:
as §1, §2

B1: N-terminal FLAG tagged B3GNT2 (enzyme, human, UniProt Q9NY97 1-397, looked up)
chain: MSVGRRRIKLLGILMMANVFIYFIMEVSKSSSQEKNGKGEVIIPKEKFWKISTPPEAYWNREQEKLNRQYNPILSMLTNQTGEAGRLSNISHLNYCEPDLRVTSVVTGFNNLPDRFKDFLLYLRCRNYSLLIDQPDKCAKKPFLLLAIKSLTPHFARRQAIRESWGQESNAGNQTVVRVFLLGQTPPEDNHPDLSDMLKFESEKHQDILMWNYRDTFFNLSLKEVLFLRWVSTSCPDTEFVFKGDDDVFVNTHHILNYLNSLSKTKAKDLFIGDVIHNAGPHRDKKLKYYIPEVVYSGLYPPYAGGGGFLYSGHLALRLYHITDQVHLYPIDDVYTGMCLQKLGLVPEKHKGFRTFDIEEKNKNNICSYVDLMLVHSRKPQEMIDIWSQLQSAHLKC
notes: FLAG-tagged ORF overexpressed in cells; pulled down from lysate with mouse anti-FLAG; also called N-FLAG B3GNT2; N-term FLAG; not shown: N-terminal FLAG tag
B1: the “co-IP mass spectrometry count” value in assay [1] worked out at 23; in assay [2], 3.

B2: N-terminal FLAG tagged B3GNT2 (enzyme, human, UniProt Q9NY97 1-397, looked up)
chain: B1 chain
notes: FLAG-tagged ORF overexpressed in A375 cells; pulled down from the lysate with mouse anti-FLAG; also called N-FLAG B3GNT2; N-term FLAG; not shown: N-terminal FLAG tag
Consider B2, for which, in assay [3], the “co-IP/MS count, N-term FLAG” value was found to be 47.

The values are drawn from US20240261333A1 (published 2024).
